Experimental data taken from patent US20240141072A1 (published 2024).
Positions count from the first letter of the chain named. Each block holds one binder with its values, some of them ahead of it.

Target: T1, biotinylated human DLL3 protein expressed as a human IgG1 fusion protein (human, UniProt Q9NYJ7 27-492, limits assumed, biotinylated)
T1 sequence: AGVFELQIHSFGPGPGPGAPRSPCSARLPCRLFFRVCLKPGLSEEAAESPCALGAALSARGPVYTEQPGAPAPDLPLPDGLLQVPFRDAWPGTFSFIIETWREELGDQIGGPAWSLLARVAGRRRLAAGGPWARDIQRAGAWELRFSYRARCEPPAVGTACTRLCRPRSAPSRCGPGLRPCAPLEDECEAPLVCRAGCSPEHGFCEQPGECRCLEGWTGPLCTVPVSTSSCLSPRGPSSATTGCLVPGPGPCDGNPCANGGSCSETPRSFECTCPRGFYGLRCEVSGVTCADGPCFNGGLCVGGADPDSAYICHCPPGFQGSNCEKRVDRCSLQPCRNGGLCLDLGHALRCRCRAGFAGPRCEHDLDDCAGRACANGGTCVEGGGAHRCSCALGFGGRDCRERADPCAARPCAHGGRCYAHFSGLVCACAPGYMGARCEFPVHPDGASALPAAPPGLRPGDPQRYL
Experiment: Octet BLI, single 50 nM
Summary of the method: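 Unpurified trispecific binders in conditioned medium, each at a known concentration, are assayed for affinity to human DLL3.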

B1: 2C06 anti-DLL3 trispecific protein (other)
chain: EVQLVESGGGLVQPGGSLTLSCVASGSTNSINAMGWYRRAPGKQRELVAGISSDGSKVYKDSVKGRFTISRDNAKNSVYLQMNSLRAEDTAVYYCYYYRTVSGSSMRYWGQGTLVTVSS
notes: not shown: linker 1808, anti-albumin sdAb, linker 1808, anti-CD3 fragment, His6 1819
Kd: 6.7 nM

B2: 2C07 anti-DLL3 trispecific protein (other)
chain: B1 chain with N29S, G35A, K60A, Y98F, T100S
notes: as for B1
Kd: 6.2 nM

B3: 2C08 anti-DLL3 trispecific protein (other)
chain: B1 chain with N29S, S30R, K60Q, Y98F, T100R
notes: as for B1
Kd: 6.1 nM

B4: 2C09 anti-DLL3 trispecific protein (other)
chain: EVQLVESGGGLVQPGGSLTLSCVPSGSTSNINAMGWYRRAPGKQRELPAGISSDGTKIYADSAKVPFTITRDNAKNSVYLQMNSLRAEDTAVYYCYYFRTVSGTSMRYWGQGTLVTVSS
notes: as for B1
Kd: 6.4 nM

B5: 2C010 anti-DLL3 trispecific protein (other)
chain: B1 chain with N29S, S30K, G55R, K60A, Y98F, S102A
notes: as for B1
Kd: 7.6 nM

B6: 2D02 anti-DLL3 trispecific protein (other)
chain: B1 chain with N29S, M34L, K57L, K60A, Y98F, T100I
notes: as for B1
Kd: 14 nM

B7: 2D03 anti-DLL3 trispecific protein (other)
chain: B1 chain with S27K, N29S, K60A, Y98F, S104V
notes: as for B1
Kd: 6.8 nM

B8: 2D04 anti-DLL3 trispecific protein (other)
chain: B1 chain with N29S, M34V, K60R, Y98F, S102Q
notes: as for B1
Kd: 6.2 nM

B9: 2D05 anti-DLL3 trispecific protein (other)
chain: B1 chain with N29S, S30R, K60A, Y98F, V101A
notes: as for B1
Kd: 8.3 nM

B10: 2D06 anti-DLL3 trispecific protein (other)
chain: B1 chain with N29S, K60S, Y98F, M106S
notes: as for B1
Kd: 6.6 nM

B11: 2D07 anti-DLL3 trispecific protein (other)
chain: B1 chain with N29S, M34V, S56T, K60R, Y98F, S102Q
notes: as for B1
Kd: 6 nM

B12: 2D09 anti-DLL3 trispecific protein (other)
chain: B1 chain with S27T, N29S, V48A, K60N, Y98F, S102R
notes: as for B1
Kd: 8.2 nM

B13: 2D010 anti-DLL3 trispecific protein (other)
chain: B1 chain with N29S, K60A, Y98F, V101K
notes: as for B1
Kd: 7.3 nM

B14: 2D011 anti-DLL3 trispecific protein (other)
chain: B1 chain with S27T, N29S, K60A, Y98F, S102W
notes: as for B1
Kd: 5.4 nM

B15: 2D012 anti-DLL3 trispecific protein (other)
chain: B1 chain with S27K, N29S, K60T, Y98F, V101R
notes: as for B1
Kd: 4.9 nM

B16: 2E06 anti-DLL3 trispecific protein (other)
chain: B1 chain with N29S, K60A, D61S, Y98F, S102R
notes: as for B1
Kd: 11 nM

B17: 2E08 anti-DLL3 trispecific protein (other)
chain: B1 chain with T28R, N29S, S53A, K60A, Y98F, V101Q
notes: as for B1
Kd: 17 nM

B18: 2E09 anti-DLL3 trispecific protein (other)
chain: B1 chain with T28V, N29S, K60A, D61S, V63A, Y98F, V101L
notes: as for B1
Kd: 8.5 nM

B19: 2F01 anti-DLL3 trispecific protein (other)
chain: B1 chain with N29S, K60S, Y98F, T100L
notes: as for B1
Kd: 9.2 nM

B20: 2F02 anti-DLL3 trispecific protein (other)
chain: B1 chain with N29S, M34V, K60A, D61G, Y98F, S105Y
notes: as for B1
Kd: 9.6 nM

B21: 2F03 anti-DLL3 trispecific protein (other)
chain: B1 chain with N29S, G35A, V48A, G55N, K60A, Y98F, S102G
notes: as for B1
Kd: 5.9 nM

B22: 2F06 anti-DLL3 trispecific protein (other)
chain: B1 chain with N29S, M34Y, K57A, K60A, Y98F, V101H
notes: as for B1
Kd: 10 nM

B23: 2F07 anti-DLL3 trispecific protein (other)
chain: B1 chain with N29S, M34V, K57S, K60A, Y98F, G103T
notes: as for B1
Kd: 8 nM

B24: 2F08 anti-DLL3 trispecific protein (other)
chain: B4 chain with P24A, T28K, N30S, D54N, I58V, P66R, T70S, S102L
notes: as for B1
Kd: 20 nM

B25: 2F09 anti-DLL3 trispecific protein (other)
chain: B1 chain with N29S, G35A, V58L, K60A, Y98F
notes: as for B1
Kd: 6.5 nM

B26: 2G03 anti-DLL3 trispecific protein (other)
chain: B1 chain with N29S, K57L, K60A, Y98F, Y108A
notes: as for B1
Kd: 5.6 nM

B27: 2G04 anti-DLL3 trispecific protein (other)
chain: B1 chain with N29S, K57L, K60A, Y98F, T100I, V101L
notes: as for B1
Kd: 11 nM

B28: 2G07 anti-DLL3 trispecific protein (other)
chain: B1 chain with N29S, G35A, K60A, Y98F, S102Q
notes: as for B1
Kd: 6.5 nM

B39: 3F03 anti-DLL3 trispecific protein (other)
chain: EVQLVESGGGLVQPGGSLTLSCAASGSSVSFLSMAWYRQAPGKKRELVAGISADGSTDYIDSVKGRFTISRDNAKNSVYLQMNSLRAEDTAVYYCYAYRWRTRYTYWGQGTLVTVSS
notes: as for B1
Kd: 13 nM

Continued, values first:

Kd: 4.1 nM
B29: 2G08 anti-DLL3 trispecific protein (other)
chain: B1 chain with N29S, S30Y, K60A, Y98F, S104Q, R107G
notes: as for B1

Kd: 8 nM
B30: 2G09 anti-DLL3 trispecific protein (other)
chain: B1 chain with N29S, I51V, K60A, Y98F, M106A
notes: as for B1

Kd: 13 nM
B31: 2G011 anti-DLL3 trispecific protein (other)
chain: B1 chain with N29S, V48P, S53R, K60A, Y98F, T100Y
notes: as for B1

Kd: 5.3 nM
B32: 2H03 anti-DLL3 trispecific protein (other)
chain: B1 chain with N29S, G35A, K60A, Y98F, T100Q
notes: as for B1

Kd: 6.3 nM
B33: 2H04 anti-DLL3 trispecific protein (other)
chain: B1 chain with N29S, G55T, K60A, Y98F, S105Y
notes: as for B1

Kd: 7.9 nM
B34: 2H06 anti-DLL3 trispecific protein (other)
chain: B1 chain with N29S, S30T, K60A, Y98F, V101A
notes: as for B1

Kd: 6.1 nM
B35: 2H07 anti-DLL3 trispecific protein (other)
chain: B1 chain with N29S, M34V, K57T, K60A, Y98F, S104H
notes: as for B1

Kd: 18 nM
B36: 2H08 anti-DLL3 trispecific protein (other)
chain: B1 chain with N29S, V48A, S53K, K60A, V63A, Y98F, M106S
notes: as for B1

Kd: 6.4 nM
B37: 2H010 anti-DLL3 trispecific protein (other)
chain: B1 chain with N29S, V48A, V58L, K60A, Y98F
notes: as for B1

Kd: 5 nM
B38: 2H011 anti-DLL3 trispecific protein (other)
chain: B1 chain with N29S, S30R, K60A, Y98F, T100R
notes: as for B1

Kd: 16 nM
B40: 3A01 anti-DLL3 trispecific protein (other)
chain: B39 chain with S30K, R101T, T102R
notes: as for B1

Kd: 12 nM
B41: 3A03 anti-DLL3 trispecific protein (other)
chain: B39 chain with S28R, A53R, R101T, Y104R
notes: as for B1

Kd: 9.2 nM
B42: 3A04 anti-DLL3 trispecific protein (other)
chain: B39 chain with S28Q, A53R, R101T, T105I
notes: as for B1
